# B1: VH1_A8/Vκ1 IgG4 (antibody, V domains shown)
# VH: QVQLVQSGAELKKPGASVKLSCKASGYTFTSYGISWVKQATGQGLEWIGEIYPRSGNTYYNEKFKGRATLTADKSTSTAYMELRSLKSEDSAVYFCARSTTVSPPAHWGTGTTVTVSS
# VL: DIQMTQSPSYLSASVGDRVTITCKASDHINNWLAWYQQKPGQAPRLLISGATSLETGVPSRFSGSGTGKDYTLTISSLQTEDFATYYCQQYWSTPYTFGGGTKVEIK
# notes: Human IgG4, kappa
# Experiments:
# [1] = target: monomeric His-tagged human FcRn (JTA), produced in-house (human) (UniProt P55899); experiment: SPR, IgG amine-coupled, monomeric His-hFcRn injected, pH 6.0; first of two values in the cell
# [2] = target: monomeric His-tagged human FcRn (JTA), produced in-house (human) (UniProt P55899); experiment: SPR, IgG amine-coupled, monomeric His-hFcRn injected, 1:1 Langmuir, pH 6.0
# [3] = target: monomeric His-tagged human FcRn (JTA), produced in-house (human) (UniProt P55899); experiment: SPR, IgG amine-coupled, monomeric His-hFcRn injected, pH 6.0; second value (steady-state affinity model by the footnote)
# [4] = target: T1, recombinant human FcRn (Sino Biological Inc. Cat. No. CT009-H08H) (human, UniProt P55899 24-297; P61769 21-119); experiment: competition ELISA vs biotinylated human serum IgG, captured FcRn, pH 6.0
# T1 construct: Bought protein; also called immobilized FcRn; hFcRn (SINO)
# Protocol: The following day, 0.5 μg/ml recombinant human FcRn (Sino Biological Inc. cat. no. CT009-H08H) diluted in PBS pH 7.4 was added to the wells and incubated for one hour at 37° C. After washing the plates 3× with PBST pH 7.4, the plates were blocked with PBSM pH 7.4 for one hour at 37° C. From this point onwards, all wash and incubation steps were performed at assay pH 6.0.
# [5] = target: T1, recombinant human FcRn (Sino Biological …); experiment: competition ELISA vs biotinylated parent murine antibody, captured FcRn, pH 7.4
# Protocol: (§1) The following day, 1 μg/ml recombinant human FcRn (Sino Biological Inc. cat. no. CT009-H08H) diluted in PBS pH 7.4 was added to the wells and incubated for 1 hour at 37° C. After washing the plates 3× with PBST pH 7.4, the plates were blocked with PBSM pH 7.4 for 1 hour at 37° C. From this point onwards, all wash and incubation steps were performed at the chosen assay pH (pH 6.0 or 7.4).
# (§2) Additional combinations of humanized affinity matured heavy chains and humanized affinity matured light chains were tested in the competition ELISA. Combinations of humanized affinity matured heavy chains and humanized non-affinity matured light chains also were tested.
# [6] = target: T1, recombinant human FcRn (Sino Biological …); experiment: competition ELISA vs biotinylated parent murine antibody, captured FcRn, pH 6.0
# Protocol: as §1, §2
# Chain of monomeric His-tagged human FcRn (JTA), produced in-house (human) (P55899 24-297 limits assumed, chain 1 of 2): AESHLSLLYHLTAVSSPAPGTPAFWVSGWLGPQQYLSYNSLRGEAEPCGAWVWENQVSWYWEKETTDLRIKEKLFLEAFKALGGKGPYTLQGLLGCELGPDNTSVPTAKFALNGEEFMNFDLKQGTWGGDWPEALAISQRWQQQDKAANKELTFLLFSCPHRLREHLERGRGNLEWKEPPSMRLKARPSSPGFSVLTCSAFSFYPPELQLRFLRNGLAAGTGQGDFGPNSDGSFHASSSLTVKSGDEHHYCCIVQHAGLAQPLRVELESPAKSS
# Chain of monomeric His-tagged human FcRn (JTA), produced in-house (human) (P61769 21-119 limits assumed, chain 2 of 2, further chain): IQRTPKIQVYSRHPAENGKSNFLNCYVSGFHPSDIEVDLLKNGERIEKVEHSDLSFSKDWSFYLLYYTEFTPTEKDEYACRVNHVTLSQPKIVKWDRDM
# T1 sequence (P55899 24-297 limits assumed, chain 1 of 2): as the sequence (P55899 24-297 limits assumed, chain 1 of 2) above
# T1 sequence (P61769 21-119 limits assumed, chain 2 of 2): as the sequence (P61769 21-119 limits assumed, chain 2 of 2, further chain) above
Molecule,Kd [1],koff [2],kon [2],Kd [3],average relative IC50 [4],average relative IC50 [5],average relative IC50 [6]
human IgG1 (antibody),763 nM,0.0824 s⁻¹,108000 M⁻¹ s⁻¹,1250 nM,,,
human IgG4 (antibody),1010 nM,,,970 nM,,,
B1,,,,,0.53 relative to parent murine antibody,0.89 relative to chimeric parent murine antibody,0.87 relative to chimeric parent murine antibody

# Source: US20200207854A1 (SYNTIMMUNE, published 2020)
